Data reported in patent US20150125397A1, “DUAL SPECIFIC BINDING PROTEINS DIRECTED AGAINST IMMUNE CELL RECEPTORS AND AUTOANTIGENS” (ABBVIE INC., priority 2013, published 2015).

Target: Human IgM (Homo sapiens, UniProt P01871)
Assay: IgM binding assay (human IgM)

Human IgM, sequence (P01871 1-433 limits assumed): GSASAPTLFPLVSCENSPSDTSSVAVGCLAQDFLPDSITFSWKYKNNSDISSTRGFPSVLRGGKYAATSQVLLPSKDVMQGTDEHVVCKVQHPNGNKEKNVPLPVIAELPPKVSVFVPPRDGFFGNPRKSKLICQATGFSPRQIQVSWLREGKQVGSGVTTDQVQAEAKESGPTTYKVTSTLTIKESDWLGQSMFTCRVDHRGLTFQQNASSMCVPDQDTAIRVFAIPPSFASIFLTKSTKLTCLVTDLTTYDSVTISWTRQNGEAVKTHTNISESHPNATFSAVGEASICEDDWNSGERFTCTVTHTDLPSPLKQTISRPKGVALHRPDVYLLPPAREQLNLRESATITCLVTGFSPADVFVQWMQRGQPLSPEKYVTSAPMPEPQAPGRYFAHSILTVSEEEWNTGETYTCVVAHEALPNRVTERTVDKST
Human IgM, sequence (P01591 23-159 partner): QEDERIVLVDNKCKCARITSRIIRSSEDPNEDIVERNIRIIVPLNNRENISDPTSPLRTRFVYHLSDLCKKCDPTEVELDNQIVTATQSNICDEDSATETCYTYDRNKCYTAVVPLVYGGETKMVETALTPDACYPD

- potency in human IgM binding assay: highest potency
B1: DVD3769: DVD-Ig: VD1 hIgM (HB-57.3), SL linker, VD2 DNA (PA4); heavy SEQ ID NO 80, light 81 (antibody)
heavy: QVQLQQPGAEFVKPGAPVKLSCKASGYPFTTYWVNWMKQRPGRGLEWIGRIDPYDSETLYNQKFKDKATLTVDKSSSTAYIQLSSLTSEDSAVYYCARETYDYPFAYWGQGTLVTVSSASTKGPEVQLVESGGGLVKPGGSLKLSCVASGFTFSTYAMSWVRQTPTKRLEWVATISRGGVSTYYPDTVKGRFTISRDNAKNTLYLQMSSLRSEDTAMYYCARPPTIVTTWFAYWGQGTLVTVSS
light: DIVMTQSPSSLAMSVGQKVTMSCKSSQSLLNSSNQKNYLAWYQQKPGQSPELLVYFASTRESGVPDRFIGSGSGTDFTLTISSVQAEDLADYFCQQHYSTPFTFGSETKLEIKRTVAAPSVFIFPPDVVMTQTPLSLPVSLGDQASISCRSSQSLVHSNGNTYLHWYLQKPGQSPKLLIYKVSNRFSGVPDRFSGSGSGTDFTLKISRVEAEDLGAYFCSQSTHVPYTFGGPTRLEIKR
